Test results published in patent US20110015122, “[…] B VIRUS-BINDING POLYPEPTIDES AND METHODS OF USE […]” (published 2011).

Experiments:
Conditions in all cases: tags: MBP fusion (pMAL); label: 5'-biotin sense strand (SPR)
[1] = molecular target: ZFPt (synthetic); experiment: SPR; HBS-EP; EMSA na
[2] = molecular target: ZFPu (synthetic); experiment: SPR; HBS-EP; EMSA na
[3] = molecular target: ZFPb (synthetic); experiment: SPR; HBS-EP, 1:1 with drifting baseline
[4] = molecular target: ZFPd (synthetic); experiment: SPR; HBS-EP; text elsewhere calls ZFPe the picomolar binder
[5] = molecular target: ZFPc (synthetic); experiment: SPR; HBS-EP, 1:1 with drifting baseline
[6] = molecular target: ZFPk (synthetic); experiment: SPR; HBS-EP
[7] = molecular target: ZFPq (synthetic); experiment: SPR; HBS-EP; EMSA na
[8] = molecular target: ZFPa (synthetic); experiment: SPR; HBS-EP, 1:1 with drifting baseline
[9] = molecular target: ZFPn (synthetic); experiment: SPR; HBS-EP
[10] = molecular target: ZFPe (synthetic); experiment: SPR; HBS-EP; text elsewhere calls ZFPe the picomolar binder
[11] = molecular target: ZFPr (synthetic); experiment: SPR; HBS-EP; EMSA na
[12] = molecular target: ZFPf (synthetic); experiment: SPR; HBS-EP, 1:1 Langmuir
Sequence of ZFPf (synthetic) (chain, as listed by the source): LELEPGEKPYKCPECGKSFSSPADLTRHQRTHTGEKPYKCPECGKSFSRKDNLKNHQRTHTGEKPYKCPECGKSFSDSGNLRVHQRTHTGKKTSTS

Sequence of ZFPk (synthetic) (chain, as listed by the source): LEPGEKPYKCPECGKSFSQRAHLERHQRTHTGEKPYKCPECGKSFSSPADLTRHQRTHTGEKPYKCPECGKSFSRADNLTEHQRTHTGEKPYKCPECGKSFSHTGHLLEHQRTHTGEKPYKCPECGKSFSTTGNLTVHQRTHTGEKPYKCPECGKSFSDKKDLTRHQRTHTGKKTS
Sequence of ZFPq (synthetic) (chain, as listed by the source): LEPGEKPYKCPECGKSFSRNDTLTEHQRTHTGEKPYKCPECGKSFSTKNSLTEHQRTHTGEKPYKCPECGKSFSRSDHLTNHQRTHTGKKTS
Sequence of ZFPd (synthetic) (chain, as listed by the source): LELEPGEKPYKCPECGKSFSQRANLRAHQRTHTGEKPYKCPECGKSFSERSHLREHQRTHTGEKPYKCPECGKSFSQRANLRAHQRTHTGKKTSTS
Sequence of ZFPe (synthetic) (chain, as listed by the source): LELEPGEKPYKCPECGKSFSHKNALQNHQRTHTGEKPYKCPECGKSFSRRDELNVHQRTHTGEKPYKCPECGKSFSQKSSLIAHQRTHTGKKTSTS
Sequence of ZFPa (synthetic) (chain, as listed by the source): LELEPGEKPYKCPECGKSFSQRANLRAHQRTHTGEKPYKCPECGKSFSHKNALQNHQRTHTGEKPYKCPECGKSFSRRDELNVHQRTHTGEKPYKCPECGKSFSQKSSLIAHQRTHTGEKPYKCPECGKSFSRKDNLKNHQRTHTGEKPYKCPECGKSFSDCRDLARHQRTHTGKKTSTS
Sequence of ZFPr (synthetic) (chain, as listed by the source): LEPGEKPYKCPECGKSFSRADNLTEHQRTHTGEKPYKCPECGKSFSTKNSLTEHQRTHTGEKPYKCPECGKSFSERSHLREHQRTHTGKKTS
Sequence of ZFPc (synthetic) (chain, as listed by the source): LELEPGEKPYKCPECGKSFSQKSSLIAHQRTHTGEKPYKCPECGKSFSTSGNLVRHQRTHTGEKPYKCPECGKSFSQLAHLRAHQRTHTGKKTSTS
Sequence of ZFPb (synthetic) (chain, as listed by the source): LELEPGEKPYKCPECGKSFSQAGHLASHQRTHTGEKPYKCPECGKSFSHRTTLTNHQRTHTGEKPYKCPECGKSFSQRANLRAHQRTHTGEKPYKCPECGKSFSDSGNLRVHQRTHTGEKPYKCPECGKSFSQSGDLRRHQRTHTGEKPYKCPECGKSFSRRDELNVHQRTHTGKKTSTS
Sequence of ZFPn (synthetic) (chain, as listed by the source): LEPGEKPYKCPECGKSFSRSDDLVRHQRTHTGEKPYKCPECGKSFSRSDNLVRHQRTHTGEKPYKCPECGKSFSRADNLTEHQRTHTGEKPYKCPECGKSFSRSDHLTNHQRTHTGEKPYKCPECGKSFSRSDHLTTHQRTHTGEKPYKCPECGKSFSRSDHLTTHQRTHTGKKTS
Sequence of ZFPu (synthetic) (chain, as listed by the source): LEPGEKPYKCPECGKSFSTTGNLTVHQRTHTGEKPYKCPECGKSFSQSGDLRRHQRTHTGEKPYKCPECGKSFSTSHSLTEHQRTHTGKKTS
Sequence of ZFPt (synthetic) (chain, as listed by the source): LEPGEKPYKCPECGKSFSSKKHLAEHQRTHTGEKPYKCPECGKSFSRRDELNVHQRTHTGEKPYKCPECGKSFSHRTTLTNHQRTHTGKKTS

B1: ZFPt target oligo (dsDNA)
DNA 1: AGTACTAGTATGCCCAGTACT
DNA 2: AGTACTGGGCATACTAGTACT
**Q.** Which Kd [1] does the source give for B1 here?
**A.** Its Kd is 1070 nM.

B2: ZFPu target oligo (dsDNA)
DNA 1: AGTACTCCAGCAAATAGTACT
DNA 2: AGTACTATTTGCTGGAGTACT
**Q.** B2 was tested. Which Kd [2] did it give?
**A.** Its Kd is 2470 nM.

B3: ZFPb target oligo (dsDNA)
DNA 1: AGTACTATGGCAAACAAAAGTTGAAGTACT
DNA 2: AGTACTTCAACTTTTGTTTGCCATAGTACT
**Q.** B3 was tested. Which Kd [3] did it give?
**A.** The Kd was 40.2 nM.

B4: ZFPd target oligo (dsDNA)
DNA 1: AGTACTAAAAGCAAAAGTACT
DNA 2: AGTACTTTTGCTTTTAGTACT
**Q.** How did the Kd [4] turn out when B4 was run?
**A.** The Kd was 0.471 nM.

B5: ZFPc target oligo (dsDNA)
DNA 1: AGTACTAGAGATATAAGTACT
DNA 2: AGTACTTATATCTCTAGTACT
**Q.** For B5, which Kd [5] is on record?
**A.** The Kd was 99 nM.

B6: ZFPk target oligo (dsDNA)
DNA 1: AGTACTACCAATCGCCAGACAGGAAGTACT
DNA 2: AGTACTTCCTGTCTGGCGATTGGTAGTACT
**Q.** How did the Kd [6] turn out when B6 was run?
**A.** Its Kd is 5.14 nM.

B7: ZFPq target oligo (dsDNA)
DNA 1: AGTACTAGGCCTCCGAGTACT
DNA 2: AGTACTCGGAGGCCTAGTACT
**Q.** Which Kd [7] does the source give for B7 here?
**A.** Its Kd is 1290 nM.

B8: ZFPa target oligo (dsDNA)
DNA 1: AGTACTGCCAAGATAATGATTAAAAGTACT
DNA 2: AGTACTTTTAATCATTATCTTGGCAGTACT
**Q.** For B8, which Kd [8] is on record?
**A.** The Kd was 12.3 nM.

B9: ZFPn target oligo (dsDNA)
DNA 1: AGTACTTGGTGGAGGCAGGAGGCGAGTACT
DNA 2: AGTACTCGCCTCCTGCCTCCACCAAGTACT
**Q.** How did the Kd [9] turn out when B9 was run?
**A.** Its Kd is 69.4 nM.

B10: ZFPe target oligo (dsDNA)
DNA 1: AGTACTATAATGATTAGTACT
DNA 2: AGTACTAATCATTATAGTACT
**Q.** For B10, which Kd [10] is on record?
**A.** The Kd was 67.1 nM.

B11: ZFPr target oligo (dsDNA)
DNA 1: AGTACTAGCCCTCAGAGTACT
DNA 2: AGTACTCTGAGGGCTAGTACT
**Q.** For B11, which Kd [11] is on record?
**A.** Its Kd is 502 nM.

B12: ZFPf target oligo (dsDNA)
DNA 1: AGTACTAACAAGACAAGTACT
DNA 2: AGTACTTGTCTTGTTAGTACT
**Q.** B12 was tested. Which Kd [12] did it give?
**A.** The Kd was 185000 nM.
